Assay results as given in paper PMC12319226 (Frontiers in Bioinformatics, 2025).

Assays:
Test in all cases: BLI
Details in all cases: both partners purified
[1] = target: T1, fHbp m001822 (Neisseria meningitidis, engineered fHbp …, point mutant)
T1 chain: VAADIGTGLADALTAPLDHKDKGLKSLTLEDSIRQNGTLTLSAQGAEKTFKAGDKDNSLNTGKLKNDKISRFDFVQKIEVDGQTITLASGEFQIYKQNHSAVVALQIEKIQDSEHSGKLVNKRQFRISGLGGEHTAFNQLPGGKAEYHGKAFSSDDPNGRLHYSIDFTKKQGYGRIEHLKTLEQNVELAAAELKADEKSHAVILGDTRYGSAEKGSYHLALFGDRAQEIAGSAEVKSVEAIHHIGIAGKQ

[2] = target: T2, fHbp m001604 (Neisseria meningitidis, fHbp …, point mutant)
T2 chain: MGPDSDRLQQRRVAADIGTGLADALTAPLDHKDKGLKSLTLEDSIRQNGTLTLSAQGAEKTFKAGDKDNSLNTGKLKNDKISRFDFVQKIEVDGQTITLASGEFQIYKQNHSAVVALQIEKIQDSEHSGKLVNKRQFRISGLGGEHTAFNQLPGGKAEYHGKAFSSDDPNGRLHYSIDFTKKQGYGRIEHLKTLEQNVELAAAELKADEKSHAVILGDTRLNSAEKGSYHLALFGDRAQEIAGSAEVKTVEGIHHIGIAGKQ

[3] = target: T3, fHbp m001848 (Neisseria meningitidis, engineered fHbp …, chimera)
T3 chain: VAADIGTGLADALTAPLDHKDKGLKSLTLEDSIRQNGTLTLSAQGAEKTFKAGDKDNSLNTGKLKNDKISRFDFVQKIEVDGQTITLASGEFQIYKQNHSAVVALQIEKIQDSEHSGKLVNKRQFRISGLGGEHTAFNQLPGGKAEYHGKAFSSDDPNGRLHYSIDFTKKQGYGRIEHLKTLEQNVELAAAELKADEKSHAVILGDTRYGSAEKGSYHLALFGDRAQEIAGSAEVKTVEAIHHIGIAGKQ

[4] = target: T4, factor H binding protein variant 3.28 (Neisseria meningitidis, fHbp variant …)
T4 construct: also called fHbp v3.28; v3.28 Control (0002)
T4 chain: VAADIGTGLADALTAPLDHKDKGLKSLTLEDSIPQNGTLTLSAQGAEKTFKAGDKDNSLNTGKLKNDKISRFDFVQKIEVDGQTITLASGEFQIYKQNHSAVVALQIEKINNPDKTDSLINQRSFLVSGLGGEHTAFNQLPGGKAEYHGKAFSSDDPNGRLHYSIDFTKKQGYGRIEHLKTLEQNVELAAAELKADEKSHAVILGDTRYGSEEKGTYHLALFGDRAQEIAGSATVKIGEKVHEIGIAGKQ

[5] = target: T5, fHbp m001213 (Neisseria meningitidis fHbp v3.28-based …, point mutant)
T5 chain: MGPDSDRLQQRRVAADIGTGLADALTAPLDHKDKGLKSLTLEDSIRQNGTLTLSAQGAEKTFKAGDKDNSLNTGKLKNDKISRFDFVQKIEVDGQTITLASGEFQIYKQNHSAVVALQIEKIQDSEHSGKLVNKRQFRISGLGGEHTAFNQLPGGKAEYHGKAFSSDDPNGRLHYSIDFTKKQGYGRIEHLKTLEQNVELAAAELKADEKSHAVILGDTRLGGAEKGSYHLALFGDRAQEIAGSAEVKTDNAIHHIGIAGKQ

B1: mAb 1E6 (human) (antibody, V domains shown)
VH: EVQLVQSGAEVKKPGSSVKVSCKASGGTVIDYPITWVRQAPGQGLEWVGGFVPLFRTSNYGQKFQGRVTITADKSTSTASMELNSLTSEDTAIYYCARGDTAMGPFDYWGQGTLVTVSS
VL: SYVLTQPPSLSVAPGKTATLTCGGNNIAGKTVHWYQQRPGQAPVLVISYDSDRPSGIPERFSGSNSANTATLTISRVEAGDEADYYCQVWDRNSDHWVFGGGTKLTVL
notes: source: Expi293, purified (MabSelect SuRe, SEC); copies: 2 + 2
B1 showed a Kd [1] of 0.455 nM, a koff [1] of 0.00017 s⁻¹ and a kon [1] of 372900 ± 2610 M⁻¹ s⁻¹. For the same binder, the Kd [2] was 0.493 nM, the koff [2] was 0.000104 s⁻¹ and the kon [2] was 210000 ± 2260 M⁻¹ s⁻¹. It also gave a Kd [3] of 0.344 nM, a koff [3] of 0.000155 s⁻¹ and a kon [3] of 451100 ± 2150 M⁻¹ s⁻¹. The Kd [4] was 0.77 nM, the koff [4] was 0.000387 s⁻¹ and the kon [4] was 501900 ± 2080 M⁻¹ s⁻¹. It also gave a Kd [5] of 0.594 nM, a koff [5] of 0.000262 s⁻¹ and a kon [5] of 440700 ± 1810 M⁻¹ s⁻¹.
